Values of other authors, collected in PMC8693730.
Like-named read-outs stand apart in the source and are kept apart here.

Assays:
RAP74 (Homo sapiens) [1] = biological target: RAP74 (Homo sapiens) (UniProt P35269)
RAP74 (Homo sapiens) [2] = biological target: RAP74 (Homo sapiens) (UniProt P35269); remark: listed apart in the source

UniProt P35269, sequence (P35269 2-517): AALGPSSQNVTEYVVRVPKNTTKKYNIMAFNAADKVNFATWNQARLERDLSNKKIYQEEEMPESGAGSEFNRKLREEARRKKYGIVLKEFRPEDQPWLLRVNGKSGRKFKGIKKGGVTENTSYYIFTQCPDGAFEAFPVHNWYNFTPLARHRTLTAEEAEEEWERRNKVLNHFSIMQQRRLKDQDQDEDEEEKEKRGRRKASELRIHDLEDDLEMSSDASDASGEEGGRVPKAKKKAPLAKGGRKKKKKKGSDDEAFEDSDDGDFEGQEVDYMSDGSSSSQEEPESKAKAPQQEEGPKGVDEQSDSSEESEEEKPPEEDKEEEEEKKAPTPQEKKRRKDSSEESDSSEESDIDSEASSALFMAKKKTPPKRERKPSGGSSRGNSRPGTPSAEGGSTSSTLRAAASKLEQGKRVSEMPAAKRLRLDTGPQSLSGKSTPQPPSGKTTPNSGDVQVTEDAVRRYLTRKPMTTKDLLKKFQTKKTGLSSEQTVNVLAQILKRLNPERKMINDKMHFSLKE

androgen receptor NTD (from UniProt P10275)
Kd (RAP74 (Homo sapiens) [1]): 702 µM | Kd (RAP74 (Homo sapiens) [2]): 1750 µM
